Article PMC6123813 (Communications biology, 2018)

Assays:
[1] = target: YSA peptide (synthetic construct); details: cited from earlier work
[2] = target: m-ephrinA1 (Homo sapiens) (UniProt P20827); details: cited from earlier work
[3] = target: the molecule itself; experiment: FRET or BRET; FSI-FRET (two-photon spectral imaging) between EphA2-mTurq and EphA2-eYFP in the plasma membrane of live HEK293T cells in hypo-osmotic medium; no ligand; dimer to monomers, two-dimensional constants in receptors per μm^2

Sequence of EphA2 (P29317 24-537): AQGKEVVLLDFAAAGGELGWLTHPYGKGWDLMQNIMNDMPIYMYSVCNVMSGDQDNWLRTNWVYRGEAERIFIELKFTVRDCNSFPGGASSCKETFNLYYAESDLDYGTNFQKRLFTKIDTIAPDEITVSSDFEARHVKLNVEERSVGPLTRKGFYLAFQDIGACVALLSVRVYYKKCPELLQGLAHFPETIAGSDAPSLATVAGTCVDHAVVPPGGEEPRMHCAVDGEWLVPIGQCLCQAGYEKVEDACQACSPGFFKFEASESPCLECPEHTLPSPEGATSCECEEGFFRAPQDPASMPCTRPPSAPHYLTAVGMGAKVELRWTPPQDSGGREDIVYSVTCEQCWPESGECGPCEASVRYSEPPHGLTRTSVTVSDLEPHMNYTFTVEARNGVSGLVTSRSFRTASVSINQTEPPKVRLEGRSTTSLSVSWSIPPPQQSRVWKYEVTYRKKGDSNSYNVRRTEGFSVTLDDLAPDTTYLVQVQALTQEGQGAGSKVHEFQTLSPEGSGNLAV
Sequence of m-ephrinA1 (Homo sapiens) (P20827 19-182): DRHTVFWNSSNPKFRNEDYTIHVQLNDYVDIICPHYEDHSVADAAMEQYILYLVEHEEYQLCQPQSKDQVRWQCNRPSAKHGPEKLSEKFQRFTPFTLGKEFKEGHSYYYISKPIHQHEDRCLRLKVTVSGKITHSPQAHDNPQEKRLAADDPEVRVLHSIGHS

| Molecule | Kd [1] [nM] | Kd [2] [nM] | stoichiometry N [3] |
| --- | --- | --- | --- |
| EphA2 (from UniProt P29317) | 200 | 25 |  |
| EphA2 L223R/L254R/V255R triple mutant, full-length, tagged at the C-terminus with mTurquoise or eYFP (receptor, UniProt P29317 24-976, looked up) AQGKEVVLLDFAAAGGELGWLTHPYGKGWDLMQNIMNDMPIYMYSVCNVMSGDQDNWLRTNWVYRGEAERIFIELKFTVRDCNSFPGGASSCKETFNLYYAESDLDYGTNFQKRLFTKIDTIAPDEITVSSDFEARHVKLNVEERSVGPLTRKGFYLAFQDIGACVALLSVRVYYKKCPELLQGLAHFPETIAGSDAPSRATVAGTCVDHAVVPPGGEEPRMHCAVDGEWRRPIGQCLCQAGYEKVEDACQACSPGFFKFEASESPCLECPEHTLPSPEGATSCECEEGFFRAPQDPASMPCTRPPSAPHYLTAVGMGAKVELRWTPPQDSGGREDIVYSVTCEQCWPESGECGPCEASVRYSEPPHGLTRTSVTVSDLEPHMNYTFTVEARNGVSGLVTSRSFRTASVSINQTEPPKVRLEGRSTTSLSVSWSIPPPQQSRVWKYEVTYRKKGDSNSYNVRRTEGFSVTLDDLAPDTTYLVQVQALTQEGQGAGSKVHEFQTLSPEGSGNLAVIGGVAVGVVLLLVLAGVGFFIHRRRKNQRARQSPEDVYFSKSEQLKPLKTYVDPHTYEDPNQAVLKFTTEIHPSCVTRQKVIGAGEFGEVYKGMLKTSSGKKEVPVAIKTLKAGYTEKQRVDFLGEAGIMGQFSHHNIIRLEGVISKYKPMMIITEYMENGALDKFLREKDGEFSVLQLVGMLRGIAAGMKYLANMNYVHRDLAARNILVNSNLVCKVSDFGLSRVLEDDPEATYTTSGGKIPIRWTAPEAISYRKFTSASDVWSFGIVMWEVMTYGERPYWELSNHEVMKAINDGFRLPTPMDCPSAIYQLMMQCWQQERARRPKFADIVSILDKLIRAPDSLKTLADFDPRVSIRLPSTSGSEGVPFRTVSEWLESIKMQQYTEHFMAAGYTAIEKVVQMTNDDIKRIGVRLPGHQKRIAYSLLGLKDQVNTVGIPI |  |  | 2 |
